The source of these data is US20190309069A1 (SHANGHAI HENGRUI PHARMACEUTICAL, published 2019).

The target of experiment [1] is T1, human ICOS/Fc (Beijing Sino Biological Inc.) (human, UniProt Q9Y6W8 21-141, limits assumed).
T1 construct: Bought reagent; not shown: Fc part
T1 sequence (looked up): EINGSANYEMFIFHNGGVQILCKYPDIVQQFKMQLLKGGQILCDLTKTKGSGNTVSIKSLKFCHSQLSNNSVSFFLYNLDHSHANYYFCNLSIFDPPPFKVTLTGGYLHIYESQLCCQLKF
As to the kind of experiment: selectivity ELISA, protein coated at 1 µg/ml. As to the method: (§1) To detect the specific binding activity of PD-1 antibody to other proteins of the PD-1 family, human CTLA4 and human CD28 were used for binding assays. Meanwhile, the PD-1 of mice was also used for binding assays so as to determine the diversity of PD-1 antibody for different species other than human/monkey.
(§2) Selectively binding proteins: human PD-1, human ICOS, human CTLA4, human CD28 and mouse PD-1, (Beijing Sino Biological Inc.), were respectively diluted to 1 μg/ml with PBS buffer, pipetted into a 96-well plate at 100 μl/well and standed for 16 h-20 h at 4° C. The 96-well plate was washed once with PBST (PH7.4 PBS, containing 0.05% tweeen20) after PBS buffer was removed, then the plate was incubated and blocked for 1 h at room temperature with 120 μl/well PBST/1% milk. After removal of the blocking solution, the plate was washed with PBST buffer for 3 times, followed by addition of the test PD-1 antibody, and incubated for 1.5 h at room temperature. After removal of the reaction system, the plate was washed for 3 times with PBST, followed by addition of 100 μl/well HRP-labeled anti-murine secondary antibody (The Jackson Laboratory) which was diluted by PBST/1% milk, and incubated for 1 h at room temperature. The plate was washed for 3 times with PBST, followed by addition of 100 μl/well TMB, and incubated for 5-10 min at room temperature. Then the reaction was terminated with addition of 100 μl/well 1M H₂SO₄. The absorbance value at 450 nm was read on the NOVOStar microplate reader.

Experiment [2] addresses T2, human CTLA4 (Beijing Sino Biological Inc.) (human, UniProt P16410 36-162, limits assumed).
T2 construct: Bought reagent
T2 sequence (looked up): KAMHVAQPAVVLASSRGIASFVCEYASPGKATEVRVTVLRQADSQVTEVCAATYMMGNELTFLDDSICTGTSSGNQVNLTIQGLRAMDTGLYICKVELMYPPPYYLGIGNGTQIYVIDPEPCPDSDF
As to the kind of experiment: selectivity ELISA, protein coated at 1 µg/ml. The protocol:
as §1, §2

Experiment [3] deals with T3, human CD28 (Beijing Sino Biological Inc.) (human, UniProt P10747 19-152).
T3 construct: Bought reagent
T3 sequence (P10747 19-152 limits assumed): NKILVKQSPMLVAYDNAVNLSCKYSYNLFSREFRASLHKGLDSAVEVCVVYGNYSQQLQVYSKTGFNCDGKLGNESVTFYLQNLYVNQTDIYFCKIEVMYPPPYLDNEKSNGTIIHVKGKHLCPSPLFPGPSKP
The experiment is described as follows: selectivity ELISA, protein coated at 1 µg/ml. The protocol:
as §1, §2

The target in experiment [4] is T4, human PD1-FC (Beijing Sino Biological Inc.) (human, UniProt Q15116 25-167, limits assumed).
T4 construct: not shown: Fc part
T4 sequence (Q15116 25-167 limits assumed): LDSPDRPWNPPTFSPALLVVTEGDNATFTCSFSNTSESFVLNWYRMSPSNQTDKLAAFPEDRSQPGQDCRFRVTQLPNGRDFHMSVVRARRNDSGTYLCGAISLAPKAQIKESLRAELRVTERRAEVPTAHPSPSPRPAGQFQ
The experiment is described as follows: selectivity ELISA, protein coated at 1 µg/ml. As to the method: as §1, §2

In experiment [5] the target is T5, mouse PD1-Fc (Beijing Sino Biological Inc.) (mouse, UniProt Q02242 25-167, limits assumed).
T5 construct: Bought reagent; also called murine PD-1; not shown: Fc part
T5 sequence (looked up): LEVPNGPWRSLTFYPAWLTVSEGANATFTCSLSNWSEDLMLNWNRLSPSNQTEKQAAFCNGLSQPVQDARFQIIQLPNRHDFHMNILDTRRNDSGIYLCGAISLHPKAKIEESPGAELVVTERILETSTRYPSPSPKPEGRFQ
The experiment is described as follows: selectivity ELISA, protein coated at 1 µg/ml. The protocol:
as §1, §2

In experiment [6] the target is T6, recombinant PD-1 extracellular domain Fc fusion protein (PD-1 Fc) (human, biotin label (sites not given) in the ELISA binding assay; unlabelled when coated in the ligand blocking assay).
T6 construct: also called human PD-1Fc; human PD-1
T6 sequence (chain, as listed by the source limits assumed): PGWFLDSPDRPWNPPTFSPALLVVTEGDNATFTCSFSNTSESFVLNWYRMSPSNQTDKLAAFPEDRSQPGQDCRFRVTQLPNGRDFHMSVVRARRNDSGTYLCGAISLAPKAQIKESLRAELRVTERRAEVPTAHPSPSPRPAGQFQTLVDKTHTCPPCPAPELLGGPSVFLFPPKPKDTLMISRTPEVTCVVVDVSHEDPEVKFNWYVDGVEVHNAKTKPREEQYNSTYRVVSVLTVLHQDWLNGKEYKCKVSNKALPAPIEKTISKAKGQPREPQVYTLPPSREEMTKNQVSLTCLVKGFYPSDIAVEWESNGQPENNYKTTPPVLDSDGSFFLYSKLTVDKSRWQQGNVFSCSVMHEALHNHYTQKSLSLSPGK
The experiment is described as follows: ELISA, biotinylated PD-1 Fc captured on avidin. The protocol: The PD-1 antibody blocks signaling pathway of PD-1 and its ligand by binding to PD-1 extracellular domain. In vitro ELISA assay is used to detect the binding property of the PD-1 antibody. Biotinylated PD-1 extracellular domain FC fusion protein (PD-1 FC) is coated onto 96-well plates by binding to neutralization avidin. Signal intensity after the addition of the antibody is used to determine the binding property of the antibody and PD-1.
Neutralization avidin (binding to biotin) was diluted to 1 μl/ml with PBS buffer, pipetted into a 96-well plate with at 100 μl/well and standed for 16 h-20 h at 4° C. The 96-well plate was washed once with PBST (PH7.4 PBS, containing 0.05% tweeen20) after PBS buffer was removed, then the plate was incubated and blocked for 1 h at room temperature with addition of 120 μl/well PBST/1% milk. After removal of the blocking solution, the plate was washed with PBST buffer, followed by addition of 1 μg/ml biotin-labeled PD1-FC which was diluted by PBST/1% milk, and incubated for 1 h at room temperature. After removal of the blocking solution, the plate was washed with PBST buffer for 3 times, followed by addition of the test PD-1 antibody which was diluted to a suitable concentration by PBST/1% milk, and incubated for 1.5 h at room temperature. […] The absorbance value at 450 nm was read on NOVOStar microplate reader; the ELISA binding EC₅₀ value was calculated.

In experiment [7] the target is T7, PD-1 His protein (Beijing Sino Biological Inc.) (UniProt Q15116 25-167, limits assumed).
T7 construct: Bought reagent, analyte in the Biacore assay; not shown: His tag
T7 sequence (Q15116 25-167 limits assumed): as the sequence (Q15116 25-167 limits assumed) above
The experiment is described as follows: Biacore SPR, antibody coupled to CM5 chip, PD-1 His as analyte, 1:1 model. As to the method: According to the instruction of a kit provided by Biacore, the test PD-1 antibody of the present invention was covalently linked to CM5 (GE) chip using a standard amino coupling method. Then a series of gradient concentrations of PD-1 His protein (Beijing Sino Biological Inc.), which were diluted in the same buffer, were loaded into each cycle successively. After that, the samples were regenerated with regenerated reagent in the kit. The antigen-antibody binding kinetics was tracked for 3 minutes and the dissociation kinetics was tracked for 10 minutes. The data obtained was analyzed by GE's BIAevaluation software using 1:1 (Langmuir) binding model.

B1: murine monoclonal antibody mAb005 (antibody, V domains shown)
VH: EVMLVESGGGLVKPGGSLKLSCAASGFTFSSYMMSWVRQTPEKRLEWVATISGGGANTYYPDSVKGRFTISRDNAKNTLYLQMSSLRSEDTALYYCARQLYYFDYWGQGTTLTVSS
VL: DIQMTQSPASQSASLGEGVTITCLASQTIGTWLTWYQQKPGKSPQLLIYTATSLADGVPSRFSGSGSGTKFSFKISSLQAEDFVTYYCQQVYSIPWTFGGGTKLEIK
notes: Murine monoclonal antibody from a hybridoma; also called PD-1 antibody mAb005
B1: the “absorbance at 450 nm” value came to 0.15 in experiment [1]; 0.17 in experiment [2]; 0.12 in experiment [3]; 2.64 in experiment [4]; 0.07 in experiment [5]. Moreover, the EC50 in experiment [6] was 0.25 nM. In experiment [7], this molecule had a Kd of 3.57 nM. The koff in experiment [7] came to 0.000377 s⁻¹. In experiment [7], this molecule showed a kon of 106000 M⁻¹ s⁻¹.
